Article PMC6237275 (Chemical science, 2013)

Molecular target: His–CtBP2 (UniProt P56545 1-445)
Experiment: ELISA

B1: CP61 (cyclo-SGWTVVRMY) (peptide)
peptide: SGWTVVRMY
modifications: cyclic peptide (cyclo-SGWTVVRMY)
IC50: 19 ± 4 µM
